For series [1], the target named is rMal d 1.0108 (apple). Briefly: SEC; high-performance size-exclusion chromatography (HPSEC) of the purified recombinant proteins; fractions of monomers, dimers, tri-/tetramers and high MW aggregates; details in the online Supporting Information. Background: Size exclusion chromatography separates by hydrodynamic size, large species first.
Experiment in series [2]: as above
Series [3] deals with rCor a 1.0401 (hazelnut). Described as above.
Series [4] concerns the molecule itself. The description is as above.

For rMal d 1.0108 (natural protein), in series [1], the percent dimers was 34%, the percent monomers was found to be 56% and the percent tri-/tetramers amounted to 8%. As to rMal d 1.0108, in series [2], the “percent high MW aggregates” value amounted to 2%.

For Mal d 1 C107S, the “percent high MW aggregates” value in series [2] is recorded as below 0.5%.

For the molecule rCor a 1.0401 (natural protein), in series [3], the percent dimers is 28%, the percent monomers is 45% and the percent tri-/tetramers was 18%. As for rCor a 1.0401, the “percent high MW aggregates” value in series [2] was 9%.

B1: Cor a 1 C4,82,160S (natural protein)
chain: GVFSYEDEATSVIPPARLFKSFVLDADNLIPKVAPQHFTSAENLEGNGGPGTIKKITFAEGNEFKYMKHKVEEIDHANFKYSYSIIEGGPLGHTLEKISYEIKMAAAPHGGGSILKITSKYHTKGNASINEEEIKAGKEKAAGLFKAVEAYLLAHPDAYS
Consider B1, for which, in series [4], the percent monomers was determined as 93%.

B2: Cor a 1 C4,82,160S, L115K (natural protein)
chain: GVFSYEDEATSVIPPARLFKSFVLDADNLIPKVAPQHFTSAENLEGNGGPGTIKKITFAEGNEFKYMKHKVEEIDHANFKYSYSIIEGGPLGHTLEKISYEIKMAAAPHGGGSIKKITSKYHTKGNASINEEEIKAGKEKAAGLFKAVEAYLLAHPDAYS
For the molecule B2, in series [4], the percent monomers is above 99%.

B3: Mal d 1 C107S, I113K (natural protein)
chain: GVYTFENEFTSEIPPSRLFKAFVLDADNLIPKIAPQAIKQAEILEGNGGPGTIKKITFGEGSQYGYVKHRIDSIDEASYSYSYTLIEGDALTDTIEKISYETKLVASGSGSTKKSISHYHTKGNIEIKEEHVKAGKEKAHGLFKLIESYLKDHPDAYN
On to B3, for which the percent monomers in series [4] is above 99%.

B4: Mal d 1 C107S (natural protein)
chain: GVYTFENEFTSEIPPSRLFKAFVLDADNLIPKIAPQAIKQAEILEGNGGPGTIKKITFGEGSQYGYVKHRIDSIDEASYSYSYTLIEGDALTDTIEKISYETKLVASGSGSTIKSISHYHTKGNIEIKEEHVKAGKEKAHGLFKLIESYLKDHPDAYN
As to B4, the percent monomers in series [4] is above 98%.

(Values after article PMC4041322, “Differences in the intrinsic immunogenicity and allergenicity of Bet v 1 and related food allergens revealed by site-directed mutagenesis” (Allergy, 2013).)
